Measurements as given in US20090137485A1, “Antigens Targeted by Pathogenic T Cells in Type 1 Diabetes and Uses Thereof” (priority 2005, published 2009).

Tests used:
[1] = biological target: HLA-A2 molecule (Homo sapiens, UniProt P04439, D140Y/D185E/D98H/E176V/E277Q/G131W/G231S/I119V/I121R/I166T/I218V/L300P/L318F/N151K/N90K/P208A/P217A/Q86G/Q94H/R138H/R169H/T345S); details: from the literature (Panagiotopoulos et al., 2003; Regner et al., 1996); cited from earlier work
[2] = biological target: T1, human HLA-A2 MHC class I molecule (HLA-A*0201) on T2 cells (human); experiment: descriptor in the legend of an IFN-gamma ELISPOT figure (T2 cells as APC)
T1 construct: Surface HLA-A2 was read with FITC anti-HLA-A2 mAb BB7.2; also called HLA-A2.1

[3] = biological target: T1, human HLA-A2 MHC class I molecule …; experiment: peptide library screen; HLA-A2 restriction on T2 cells

In the case of KLQVFLIVL [PreproIAPP5-13], the “binding to HLA-A2” value [1] is listed as “HLA-A2-binding”.

ALIPYCVHM (also called murine IGRP 337-345) [mIGRP337-345 (ALIPYCVHM)]: binds [2].

VLFGLGFAI (also called murine IGRP 265-273) [mIGRP265-273 (VLFGLGFAI)]: binds [2].

FGIDLLWSV (also called murine IGRP 228-236) [mIGRP228-236 (FGIDLLWSV)]: binds [3].
